Substitutions are numbered along the chain they refer to. In names and notes the source's numbering stands.
Columns and labels:
[1] = target: ubiquitinated proteins of yeast cells; assay: Flag purification from yeast cells, anti-Ub immunoblot
[2] = target: ubiquitinated proteins of yeast cells; assay: Flag-Rad23 precipitation from yeast extracts, anti-Ub immunoblot, adjusted for the amount of Flag-Rad23 precipitated

B1: Flag-rad23^uba2 (yeast Rad23 L392A, amino-terminal Flag epitope) (protein, yeast (Saccharomyces cerevisiae), UniProt P32628 1-398, looked up, not shown: small tags and cut ends)
chain: MVSLTFKNFKKEKVPLDLEPSNTILETKTKLAQSISCEESQIKLIYSGKVLQDSKTVSECGLKDGDQVVFMVSQKKSTKTKVTEPPIAPESATTPGRENSTEASPSTDASAAPAATAPEGSQPQEEQTATTERTESASTPGFVVGTERNETIERIMEMGYQREEVERALRAAFNNPDRAVEYLLMGIPENLRQPEPQQQTAAAAEQPSTAATTAEQPAEDDLFAQAAQGGNASSGALGTTGGATDAAQGGPPGSIGLTVEDLLSLRQVVSGNPEALAPLLENISARYPQLREHIMANPEVFVSMLLEAVGDNMQDVMEGADDMVEGEDIEVTGEAAAAGLGQGEGEGSFQVDYTPEDDQAISRLCELGFERDLVIQVYFACDKNEEAAANIAFSDHAD
decrease of binding, against Flag-Rad23 [1]: 20%

B2: Flag-Rad23 (yeast Rad23 with an amino-terminal Flag epitope) (protein, yeast (Saccharomyces cerevisiae), UniProt P32628 1-398, looked up, not shown: small tags and cut ends)
chain: B1 chain with A392L
fold increase of the interaction after treatment with 4-NQO, against untreated cells [2]: 2 fold

B3: Flag-rad23^uba1uba2 (yeast Rad23 with mutations in both UBA domains, amino-terminal Flag epitope) (protein, yeast (Saccharomyces cerevisiae), UniProt P32628 1-398, looked up, not shown: small tags and cut ends)
chain: B1 chain with L183A
interaction remaining, compared to the wildtype protein [1]: 1%
